# Assay results published in article doi:10.1101/2025.09.30.679617.
# Target: PfCSP junctional peptide 21 (Plasmodium falciparum) (UniProt Q7K740)
# Experiment: BLI
substance,measurement,value
CIS43 mAb,Kd,21 nM
